Here are results for two proteins from paper doi:10.1101/2023.05.26.542337 (bioRxiv, 2023).

This data set deals with the molecule itself. Description: cryo-EM structure.

B1: Cas2/3 (fusion of Cas2 to the Cas3 nuclease/helicase, type I-F, Pseudomonas aeruginosa PA14) (enzyme)
chain: MNILLVSQCEKRALSETRRILDQFAERRGERTWQTPITQAGLDTLRRLLKKSARRNTAVACHWIRGRDHSELLWIVGDASRFNAQGAVPTNRTCRDILRKEDENDWHSAEDIRLLTVMAALFHDIGKASQAFQAKLRNRGKPMADAYRHEWVSLRLFEAFVGPGSSDEDWLRRLADKRETGDAWLSQLARDDRQSAPPGPFQKSRLPPLAQAVGWLIVSHHRLPNGDHRGSASLARLPAPIQSQWCGARDADAKEKAACWQFPHGLPFASAHWRARTALCAQSMLERPGLLARGPALLHDSYVMHVSRLILMLADHHYSSLPADSRLGDPNFPLHANTDRDSGKLKQRLDEHLLGVALHSRKLAGTLPRLERQLPRLARHKGFTRRVEQPRFRWQDKAYDCAMACREQAMEHGFFGLNLASTGCGKTLANGRILYALADPQRGARFSIALGLRSLTLQTGQAYRERLGLGDDDLAILVGGSAARELFEKQQERLERSGSESAQELLAENSHVHFAGTLEDGPLREWLGRNSAGNRLLQAPILACTIDHLMPASESLRGGHQIAPLLRLMTSDLVLDEVDDFDIDDLPALSRLVHWAGLFGSRVLLSSATLPPALVQGLFEAYRSGREIFQRHRGAPGRATEIRCAWFDEFSSQSSAHGAVTSFSEAHATFVAQRLAKLEQLPPRRQAQLCTVHAAGEARPALCRELAGQMNTWMADLHRCHHTEHQGRRISFGLLRLANIEPLIELAQAILAQGAPEGLHVHLCVYHSRHPLLVRSAIERQLDELLKRSDDDAAALFARPTLAKALQASTERDHLFVVLASPVAEVGRDHDYDWAIVEPSSMRSIIQLAGRIRRHRSGFSGEANLYLLSRNIRSLEGQNPAFQRPGFETPDFPLDSHDLHDLLDPALLARIDASPRIVEPFPLFPRSRLVDLEHRRLRALMLADDPPSSLLGVPLWWQTPASLSGALQTSQPFRAGAKERCYALLPDEDDEERLHFSRYEEGTWSNQDNLLRNLDLTYGPRIQTWGTVNYREELVAMAGREDLDLRQCAMRYGEVRLRENTQGWSYHPYLGFKKYN
Turning to B1, the binding result is reported as “binds”.

B2: Cas1 (type I-F, Pseudomonas aeruginosa PA14) (enzyme)
chain: MDDISPSELKTILHSKRANLYYLQHCRVLVNGGRVEYVTDEGRHSHYWNIPIANTTSLLLGTGTSITQAAMRELARAGVLVGFCGGGGTPLFSANEVDVEVSWLTPQSEYRPTEYLQRWVGFWFDEEKRLVAARHFQRARLERIRHSWLEDRVLRDAGFAVDATALAVAVEDSARALEQAPNHEHLLTEEARLSKRLFKLAAQATRYGEFVRAKRGSGGDPANRFLDHGNYLAYGLAATATWVLGIPHGLAVLHGKTRRGGLVFDVADLIKDSLILPQAFLSAMRGDEEQDFRQACLDNLSRAQALDFMIDTLKDVAQRSTVSA
Regarding B2, the binding result was “binds”.
